Earlier results on two substances are cited in PMC8645602.

As a reminder, the pKa is the pH at which an ionisable group is half protonated.

Like-named read-outs stand apart in the source and are kept apart here.

Series [1] concerns the target Tyr9 (UniProt position 9, KPKLHYFNGRG). Conditions: not stated (the article does not say whether the enzyme was free or glutathione-bound).
Series [2] addresses Tyr9 (UniProt position 9, KPKLHYFNARG).

On to “Glutathione transferase A3-3 (HsaGST A3-3) (Homo sapiens)”, for which the pKa in the series with Tyr9 [1] is recorded as 7.9.
For the substance “Glutathione transferase A1-1 (HsaGST A1-1) (Homo sapiens)”, the values for the pKa with Tyr9 [2] (free enzyme (no glutathione)) and with Tyr9 [2] (glutathione bound) were 8.1 and 9.2, respectively.
